B1: FLOT1 (parent)
chain: QMAKKAEAFQLYQEAAQLDMLLEK
B2: TRIM15 (parent)
chain: LSQMGAQSSGKILLCPLCQEEEQA

Variants of: B1
Assay: protein stability index of a GFP-peptide fusion (GPS, HEK-293T) (PSI 1-6); higher = more stable
Conditions: c terminus: a fixed tail appended
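Further: lentivirally expressed fusions sorted by FACS into six bins by GFP to DsRed ratio, PSI derived from sequencing read proportions per bin multiplied by bin number.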

Variant	protein stability index
QMAKQAEAFQLYQEAAQLDMLLEK [K5Q]	1.59
QMAKPAEAFQLYQEAAQLDMLLEK [K5P]	2.83
QMAKIAEAFQLYQEAAQLDMLLEK [K5I]	2.49
QMAKSAEAFQLYQEAAQLDMLLEK [K5S]	1.22
QMAKNAEAFQLYQEAAQLDMLLEK [K5N]	1.42
QMAKGAEAFQLYQEAAQLDMLLEK [K5G]	1.92
QMAKVAEAFQLYQEAAQLDMLLEK [K5V]	1.78
QMAKDAEAFQLYQEAAQLDMLLEK [K5D]	2.1
QMAKEAEAFQLYQEAAQLDMLLEK [K5E]	2.21
QMAKFAEAFQLYQEAAQLDMLLEK [K5F]	2.8
QMAKTAEAFQLYQEAAQLDMLLEK [K5T]	2.01
QMAKHAEAFQLYQEAAQLDMLLEK [K5H]	1.75
QMAKCAEAFQLYQEAAQLDMLLEK [K5C]	2.68
QMAKLAEAFQLYQEAAQLDMLLEK [K5L]	3.38
QMAKRAEAFQLYQEAAQLDMLLEK [K5R]	2.3
QMAKKEEAFQLYQEAAQLDMLLEK [A6E]	1.92
QMAKKDEAFQLYQEAAQLDMLLEK [A6D]	1.57
QMAKKCEAFQLYQEAAQLDMLLEK [A6C]	1.53
QMAKKFEAFQLYQEAAQLDMLLEK [A6F]	1.99
HMAKKAEAFQLYQEAAQLDMLLEK [Q1H]	2.21
EMAKKAEAFQLYQEAAQLDMLLEK [Q1E]	2.19
SMAKKAEAFQLYQEAAQLDMLLEK [Q1S]	3.78
DMAKKAEAFQLYQEAAQLDMLLEK [Q1D]	1.9
LMAKKAEAFQLYQEAAQLDMLLEK [Q1L]	2.5
PMAKKAEAFQLYQEAAQLDMLLEK [Q1P]	2.05
VMAKKAEAFQLYQEAAQLDMLLEK [Q1V]	2.23

Variant	protein stability index
IMAKKAEAFQLYQEAAQLDMLLEK [Q1I]	2.83
NMAKKAEAFQLYQEAAQLDMLLEK [Q1N]	1.8
YMAKKAEAFQLYQEAAQLDMLLEK [Q1Y]	2.96
TMAKKAEAFQLYQEAAQLDMLLEK [Q1T]	2.27
RMAKKAEAFQLYQEAAQLDMLLEK [Q1R]	1.69
AMAKKAEAFQLYQEAAQLDMLLEK [Q1A]	2.01
QMAVKAEAFQLYQEAAQLDMLLEK [K4V]	1.47
QMAEKAEAFQLYQEAAQLDMLLEK [K4E]	2.56
QMATKAEAFQLYQEAAQLDMLLEK [K4T]	1.15
QMAYKAEAFQLYQEAAQLDMLLEK [K4Y]	2.25
QMAAKAEAFQLYQEAAQLDMLLEK [K4A]	1.43
QMANKAEAFQLYQEAAQLDMLLEK [K4N]	2.38
QMAQKAEAFQLYQEAAQLDMLLEK [K4Q]	1.51
QMAMKAEAFQLYQEAAQLDMLLEK [K4M]	1.55
QMACKAEAFQLYQEAAQLDMLLEK [K4C]	1.86
QMAIKAEAFQLYQEAAQLDMLLEK [K4I]	2.27
QMAGKAEAFQLYQEAAQLDMLLEK [K4G]	2.15
QMADKAEAFQLYQEAAQLDMLLEK [K4D]	2.94
QMAPKAEAFQLYQEAAQLDMLLEK [K4P]	2.3
QMAFKAEAFQLYQEAAQLDMLLEK [K4F]	1.68
QMAHKAEAFQLYQEAAQLDMLLEK [K4H]	2.12
QMFKKAEAFQLYQEAAQLDMLLEK [A3F]	1.16
QMCKKAEAFQLYQEAAQLDMLLEK [A3C]	2.81
QMIKKAEAFQLYQEAAQLDMLLEK [A3I]	1.88
QMTKKAEAFQLYQEAAQLDMLLEK [A3T]	1.16
QMMKKAEAFQLYQEAAQLDMLLEK [A3M]	2.44

Variant	protein stability index
QMPKKAEAFQLYQEAAQLDMLLEK [A3P]	1.63
QMNKKAEAFQLYQEAAQLDMLLEK [A3N]	3.51
QMHKKAEAFQLYQEAAQLDMLLEK [A3H]	1.93
QMLKKAEAFQLYQEAAQLDMLLEK [A3L]	2.63
QMVKKAEAFQLYQEAAQLDMLLEK [A3V]	1.29
QMQKKAEAFQLYQEAAQLDMLLEK [A3Q]	1.93
QMWKKAEAFQLYQEAAQLDMLLEK [A3W]	1.21
QMYKKAEAFQLYQEAAQLDMLLEK [A3Y]	2.83
QTAKKAEAFQLYQEAAQLDMLLEK [M2T]	1.76
QVAKKAEAFQLYQEAAQLDMLLEK [M2V]	1.22
QLAKKAEAFQLYQEAAQLDMLLEK [M2L]	1.84
QIAKKAEAFQLYQEAAQLDMLLEK [M2I]	1.36
QYAKKAEAFQLYQEAAQLDMLLEK [M2Y]	2.1
QHAKKAEAFQLYQEAAQLDMLLEK [M2H]	1.57
QFAKKAEAFQLYQEAAQLDMLLEK [M2F]	1.78
QDAKKAEAFQLYQEAAQLDMLLEK [M2D]	2.45
QQAKKAEAFQLYQEAAQLDMLLEK [M2Q]	2.01
QEAKKAEAFQLYQEAAQLDMLLEK [M2E]	2.07
QSAKKAEAFQLYQEAAQLDMLLEK [M2S]	1.14
QAAKKAEAFQLYQEAAQLDMLLEK [M2A]	1.46
QPAKKAEAFQLYQEAAQLDMLLEK [M2P]	1.46
QKAKKAEAFQLYQEAAQLDMLLEK [M2K]	2.4
QGAKKAEAFQLYQEAAQLDMLLEK [M2G]	2.78
QCAKKAEAFQLYQEAAQLDMLLEK [M2C]	1.61
QNAKKAEAFQLYQEAAQLDMLLEK [M2N]	1.92

Variants of: B2
Assay: as above
Conditions: c terminus: a fixed tail appended

Variant	protein stability index
LSQMGAQSSGKILLCPLCQLEEQA [E20L]	2.82
LSQMGAQSSGKILLCPLCQIEEQA [E20I]	2.79
LSQMGAQSSGKILLCPLCQYEEQA [E20Y]	2.01
LSQMGAQSSGKILLCPLCQSEEQA [E20S]	2.64
LSQMGAQSSGKILLCPLCQTEEQA [E20T]	3.19
LSQMGAQSSGKILLCPLCQDEEQA [E20D]	4.27
LSQMGAQSSGKILLCPLCQKEEQA [E20K]	3.58
LSQMGAQSSGKILLCPLCQGEEQA [E20G]	2.81
LSQMGAQSSGKILLCPLCQPEEQA [E20P]	3.75
LSQMGAQSSGKILLCPLCQCEEQA [E20C]	2.44
LSQMGAQSSGKILLCPLCQFEEQA [E20F]	2.27
LSQMGAQSSGKILLCPLCQMEEQA [E20M]	2.73
LSQMGAQSSGKILLCPLCQVEEQA [E20V]	2.79
LSQMGAQSSGKILLCPLCQAEEQA [E20A]	3.49
LSQMGAQSSGKILLCPLCQHEEQA [E20H]	2.65
LSQMGAQSSGKILLCPLCQREEQA [E20R]	3.77
LSQMGAQSSGKILLCPLCQEEPQA [E22P]	2.56
LSQMGAQSSGKILLCPLCQEEDQA [E22D]	3.41
LSQMGAQSSGKILLCPLCQEETQA [E22T]	3.46
LSQMGAQSSGKILLCPLCQEEIQA [E22I]	2.63
LSQMGAQSSGKILLCPLCQEEYQA [E22Y]	2.02
LSQMGAQSSGKILLCPLCQEEKQA [E22K]	3.74
LSQMGAQSSGKILLCPLCQEEAQA [E22A]	4.08

Variant	protein stability index
LSQMGAQSSGKILLCPLCQEEHQA [E22H]	3.67
LSQMGAQSSGKILLCPLCQEECQA [E22C]	2.82
LSQMGAQSSGKILLCPLCQEELQA [E22L]	3.38
LSQMGAQSSGKILLCPLCQEEQQA [E22Q]	3.2
LSQMGAQSSGKILLCPLCQEEGQA [E22G]	3.12
LSQMGAQSSGKILLCPLCQEESQA [E22S]	2.89
LSQMGAQSSGKILLCPLCQEEWQA [E22W]	2
LSQMGAQSSGKILLCPLCQEEMQA [E22M]	2.56
LSQMGAQSSGKILLCPLCQEEFQA [E22F]	2.6
LSQMGAQSSGKILLCPLCQEEVQA [E22V]	4.13
LSQMGAQSSGKILLCPLCQEENQA [E22N]	4.15
LSQMGAQSSGKILLCPLCQEHEQA [E21H]	3.31
LSQMGAQSSGKILLCPLCQEFEQA [E21F]	2.4
LSQMGAQSSGKILLCPLCQEQEQA [E21Q]	2.91
LSQMGAQSSGKILLCPLCQEVEQA [E21V]	3.08
LSQMGAQSSGKILLCPLCQEYEQA [E21Y]	2.82
LSQMGAQSSGKILLCPLCQEPEQA [E21P]	3.36
LSQMGAQSSGKILLCPLCQEAEQA [E21A]	3.22
LSQMGAQSSGKILLCPLCQEKEQA [E21K]	2.85
LSQMGAQSSGKILLCPLCQETEQA [E21T]	3.36
LSQMGAQSSGKILLCPLCQEIEQA [E21I]	2.26
LSQMGAQSSGKILLCPLCQENEQA [E21N]	2.92
LSQMGAQSSGKILLCPLCQEDEQA [E21D]	3.36

Variant	protein stability index
LSQMGAQSSGKILLCPLCQEMEQA [E21M]	2.88
LSQMGAQSSGKILLCPLCQEWEQA [E21W]	2.89
LSQMGAQSSGKILLCPLCQEREQA [E21R]	2.48
LSQMGAQSSGKILLCPLCQEGEQA [E21G]	2.83
LSQMGAQSSGKILLCPLCQECEQA [E21C]	2.55
LSQMGAQSSGKILLCPLCQEEEQT [A24T]	3.72
LSQMGAQSSGKILLCPLCQEEEQW [A24W]	2.44
LSQMGAQSSGKILLCPLCQEEEQL [A24L]	2.63
LSQMGAQSSGKILLCPLCQEEEQD [A24D]	4.56
LSQMGAQSSGKILLCPLCQEEEQR [A24R]	2.99
LSQMGAQSSGKILLCPLCQEEEQV [A24V]	3.28
LSQMGAQSSGKILLCPLCQEEEQY [A24Y]	3.55
LSQMGAQSSGKILLCPLCQEEEQN [A24N]	3.88
LSQMGAQSSGKILLCPLCQEEEQE [A24E]	3.29
LSQMGAQSSGKILLCPLCQEEEQI [A24I]	3.87
LSQMGAQSSGKILLCPLCQEEEQF [A24F]	2.55
LSQMGAQSSGKILLCPLCQEEEQM [A24M]	2.84
LSQMGAQSSGKILLCPLCQEEEQS [A24S]	3.94
LSQMGAQSSGKILLCPLCQEEEQK [A24K]	4.51
LSQMGAQSSGKILLCPLCQEEEQQ [A24Q]	4.37
LSQMGAQSSGKILLCPLCQEEEQH [A24H]	3.59
LSQMGAQSSGKILLCPLCQEEEQG [A24G]	3.51
LSQMGAQSSGKILLCPLCQEEEQC [A24C]	3.14

Variant	protein stability index
LSQMGAQSSGKILLCPLCQEEEQP [A24P]	3.45
LSQMGAQSSGKILLCPLTQEEEQA [C18T]	4.86
LSQMGAQSSGKILLCPLVQEEEQA [C18V]	4.76
LSQMGAQSSGKILLCPLYQEEEQA [C18Y]	4.27
LSQMGAQSSGKILLCPLRQEEEQA [C18R]	4.21
LSQMGAQSSGKILLCPLWQEEEQA [C18W]	4.59
LSQMGAQSSGKILLCPLSQEEEQA [C18S]	4.92
LSQMGAQSSGKILLCPLQQEEEQA [C18Q]	5.56
LSQMGAQSSGKILLCPLCQEEELA [Q23L]	3.12
LSQMGAQSSGKILLCPLCQEEECA [Q23C]	3.58
LSQMGAQSSGKILLCPLCQEEEEA [Q23E]	4.53
LSQMGAQSSGKILLCPLCQEEETA [Q23T]	3.33
LSQMGAQSSGKILLCPLCQEEEGA [Q23G]	3.47
LSQMGAQSSGKILLCPLCQEEEVA [Q23V]	3.11
LSQMGAQSSGKILLCPLCQEEEHA [Q23H]	3.96
LSQMGAQSSGKILLCPLCQEEEFA [Q23F]	2.96
LSQMGAQSSGKILLCPLCQEEEYA [Q23Y]	3.09
LSQMGAQSSGKILLCPLCQEEEMA [Q23M]	3.31
LSQMGAQSSGKILLCPLCQEEEDA [Q23D]	2.89
LSQMGAQSSGKILLCPLCQEEENA [Q23N]	3.67
LSQMGAQSSGKILLCPLCQEEEAA [Q23A]	2.89
LSQMGAQSSGKILLCPLCQEEEWA [Q23W]	3.56
LSQMGAQSSGKILLCPLCQEEEIA [Q23I]	3.2

Variant	protein stability index
LSQMGAQSSGKILLCPLCHEEEQA [Q19H]	3.24
LSQMGAQSSGKILLCPLCNEEEQA [Q19N]	3.57
LSQMGAQSSGKILLCPLCGEEEQA [Q19G]	3.98
LSQMGAQSSGKILLCPLCKEEEQA [Q19K]	3.46
LSQMGAQSSGKILLCPLCPEEEQA [Q19P]	4.42
LSQMGAQSSGKILLCPLCIEEEQA [Q19I]	3.18
LSQMGAQSSGKILLCPLCYEEEQA [Q19Y]	3.73
LSQMGAQSSGKILLCPLCLEEEQA [Q19L]	2.62
LSQMGAQSSGKILLCPLCMEEEQA [Q19M]	3.19
LSQMGAQSSGKILLCPLCEEEEQA [Q19E]	4.01
LSQMGAQSSGKILLCPLCCEEEQA [Q19C]	2.52
LSQMGAQSSGKILLCPLCSEEEQA [Q19S]	3.23
LSQMGAQSSGKILLCPLCREEEQA [Q19R]	3.54
LSQMGAQSSGKILLCPLCDEEEQA [Q19D]	4.16
LSQMGAQSSGKILLCPLCVEEEQA [Q19V]	4.04
LSQMGAQSSGKILLCPLCTEEEQA [Q19T]	3.83
LSQMGAQSSGKILLCPLCAEEEQA [Q19A]	4.35
LSQMGAQSSGKILLCPLCWEEEQA [Q19W]	2.78
LSQMGAQSSGKILLCPLCFEEEQA [Q19F]	3.62

Source: the supplement of paper PMC10567573
